According to patent US20230270877A1 (Seagen, published 2023):

Target: T1, human FcγRIIIa (human, UniProt P08637 17-254)
T1 construct: whole, on cells
Assay: flow cytometry on CHO cells transfected with human FcγRIIIa, PE anti-human IgG Fc secondary, GEO mean fluorescence

T1 sequence (P08637 17-254): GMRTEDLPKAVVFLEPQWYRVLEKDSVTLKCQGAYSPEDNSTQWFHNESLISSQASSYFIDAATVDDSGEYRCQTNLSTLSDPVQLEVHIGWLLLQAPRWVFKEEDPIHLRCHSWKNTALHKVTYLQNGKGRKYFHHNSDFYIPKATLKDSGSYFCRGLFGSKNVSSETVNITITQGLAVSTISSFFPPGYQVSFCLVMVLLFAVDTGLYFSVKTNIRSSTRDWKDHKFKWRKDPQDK

B1: SEA-CD40 (nonfucosylated hS2C6) (antibody, human IgG1, kappa)
heavy: not shown
light: DIQMTQSPSSLSASVGDRVTITCRSSQSLVHSNGNTFLHWYQQKPGKAPKLLIYTVSNRFSGVPSRFSGSGSGTDFTLTISSLQPEDFATYFCSQTTHVPWTFGQGTKVEIKRTVAAPSVFIFPPSDEQLKSGTASVVCLLNNFYPREAKVQWKVDNALQSGNSQESVTEQDSKDSTYSLSSTLTLSKADYEKHKVYACEVTHQGLSSPVTKSFNRGEC
notes: also called nonfucosylated humanized S2C6
EC50 (read off the curve): ~1 mg/L
